Results taken from article doi:10.1101/2024.07.23.604771.

Target: FLAG-2xStrep-PNO1 (UniProt Q9NRX1)
Assay: co-IP

Chain of UniProt Q9NRX1 (Q9NRX1 whole entry): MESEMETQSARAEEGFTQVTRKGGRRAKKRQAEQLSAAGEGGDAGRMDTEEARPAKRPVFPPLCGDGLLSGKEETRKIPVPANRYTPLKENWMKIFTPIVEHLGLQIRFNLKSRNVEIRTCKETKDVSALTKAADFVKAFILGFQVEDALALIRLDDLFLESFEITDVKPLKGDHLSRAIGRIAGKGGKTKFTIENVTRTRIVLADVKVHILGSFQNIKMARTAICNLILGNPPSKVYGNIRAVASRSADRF

Substance “EMG1 (from UniProt Q92979 1-244) (natural protein)” has a fold increase of association, lytic against latent cells of 3 fold.
